# Measurements taken from patent publication US20190359693A1 (Janssen / Centocor, published 2019).
# Positions count from the first letter of the chain named.
# B1: SD3049 (VHH)
# VHH: EVQLVESGGGLVQPGGSLRLSCAASGLSLDTYAMSWFRQAPGKEREGVSCISSGHGMTYYADSVKGRFTISRDNSKNTLYLQMNSLQPEDTARYYCATESRYYCSDNWPAPQRYIYWGQGTQVTVSS
# B2: SD3104 (VHH)
# VHH: B1 VHH with A24I, M34V, S35G, M57N, R72T, Q87R, P88A, R93V, Q122L
# B3: SD3101 (VHH)
# VHH: B1 VHH with A24I, M34V, S35G, M57S, R72T, Q87R, P88A, R93V, Q122L
# B4: SD3102 (VHH)
# VHH: B1 VHH with A24I, M34V, S35G, M57Q, R72T, Q87R, P88A, R93V, Q122L
# B5: SD3051 (VHH)
# VHH: B1 VHH with M57I
# B6: SD3076 (VHH)
# VHH: B1 VHH with M34V, S35G, M57L, R72T, Q87R, P88A, R93V, Q122L
# B7: SD3092 (VHH)
# VHH: B1 VHH with A24I, M34V, S35G, R72T, Q87R, P88A, R93V, Q122L
# B8: SD3053 (VHH)
# VHH: B1 VHH with M57F
# B9: SD3100 (VHH)
# VHH: B1 VHH with A24I, M34V, S35G, M57A, R72T, Q87R, P88A, R93V, Q122L
# B10: SD3052 (VHH)
# VHH: B1 VHH with M57L
# B11: SD3103 (VHH)
# VHH: B1 VHH with A24I, M34V, S35G, M57D, R72T, Q87R, P88A, R93V, Q122L
# B12: SD3075 (VHH)
# VHH: B1 VHH with M34V, S35G, M57I, R72T, Q87R, P88A, R93V, Q122L
# B13: SD1087 (VHH)
# VHH: EVQLVESGGGLVQPGGSLRLSCVISGLSLDTYAVGWFRQAPGKEREGITCISSGHGMTYYADSVKGRFTVSTDNAKNTVYLQMNGLQPEDTARYYCATESRYYCSDNWPAPQRYIYWGQGTQVTVSS
# B14: SD3093 (VHH)
# VHH: B1 VHH with A24I, M34V, S35G, R72T, L79V, Q87R, P88A, R93V, Q122L
# B15: SD3073 (VHH)
# VHH: B1 VHH with A24I, M34V, S35G, I70V, R72T, Q87R, P88A, R93V, Q122L
# B16: SD3055 (VHH)
# VHH: B1 VHH with V48I, S49T, M57L
# B17: SD3054 (VHH)
# VHH: B1 VHH with V48I, S49T, M57I
# B18: SD3071 (VHH)
# VHH: B13 VHH with V23A, M57L, A75S, V79L, G85S, Q87R, P88A, R93V, Q122L
# B19: SD3069 (VHH)
# VHH: B13 VHH with V23A, A75S, V79L, G85S, Q87R, P88A, R93V, Q122L
# B20: SD3056 (VHH)
# VHH: B1 VHH with V48I, S49T, M57F
# B21: SD3070 (VHH)
# VHH: B13 VHH with V23A, M57I, A75S, V79L, G85S, Q87R, P88A, R93V, Q122L
# B22: SD3074 (VHH)
# VHH: B13 VHH with V23A, V70I, A75S, V79L, G85S, Q87R, P88A, R93V, Q122L
# B23: SD3072 (VHH)
# VHH: B13 VHH with V23A, I24A, A75S, V79L, G85S, Q87R, P88A, R93V, Q122L
# B24: SD3050 (VHH)
# VHH: B1 VHH with V48I, S49T
# B25: SD1083 (VHH)
# VHH: EVQLVESGGGLVQPGGSLRLSCAATGFTLENKAIGWFRQTPGSEREGVLCISKSGSWTYYTDSMRGRFTISRDNAENTVYLQMDSLKPEDTAVYYCATTTAGGGLCWDGTTFSRLASSWGQGTQVTVSS
# B26: SD3007 (VHH)
# VHH: EVQLLESGGGLVQPGGSLRLSCAASGFTLENKAIGWFRQAPGKEREGVSCISKSGSWTYYADSVKGRFTISRDNSKNTVYLQMNSLRAEDTAVYYCATTTAGGGLCWDGTTFSRLASSWGQGTQVTVSS
# B27: SD3009 (VHH)
# VHH: B26 VHH with I34M, G35S, S49L, V79L
# B28: SD3088 (VHH)
# VHH: B26 VHH with S49L, V79L, Q124L
# B29: SD3010 (VHH)
# VHH: B26 VHH with S49L, V79L
# B30: SD3011 (VHH)
# VHH: B26 VHH with S49L
# B31: SD3012 (VHH)
# VHH: B26 VHH with S49L, A88P
# B32: SD3008 (VHH)
# VHH: B26 VHH with A88P
# B33: SD3087 (VHH)
# VHH: B26 VHH with S49L, A88P, Q124L
# B34: SD1084 (VHH)
# VHH: EVQLVESGGGLVQPGGSLKLSCAASGFTFSTSWMYWLRQAPGKGLEWVSVINTDGGTYYADSVKDRFTISRDNAKDTLYLQMSSLKSEDTAVYYCAKDWGGPEPTRGQGTQVTVSS
# B35: SD3002 (VHH)
# VHH: B34 VHH with K19R, D65G, A74S, D76N, S83N, K86R, S87A
# B36: SD3086 (VHH)
# VHH: B34 VHH with K19R, L37V, D65G, A74S, D76N, S83N, K86R, S87A, Q111L
# B37: SD3001 (VHH)
# VHH: B34 VHH with K19R, Y35S, D65G, A74S, D76N, S83N, K86R, S87A
# B38: SD3004 (VHH)
# VHH: B34 VHH with K19R, D65G, A74S, S83N, K86R, S87A
# B39: SD3085 (VHH)
# VHH: B34 VHH with K19R, D65G, A74S, D76N, S83N, K86R, S87A, Q111L
# B40: SD3003 (VHH)
# VHH: B34 VHH with K19R, Y35S, D65G, A74S, S83N, K86R, S87A
# Target: hemagglutinin (HA) of influenza B/Brisbane/60/08 (Victoria) (influenza B virus)
# Test: cell-based or functional assay
row,Binder,VNA IC50
1,B1,> 1000 nM
2,B2,> 1000 nM
3,B3,> 1000 nM
4,B4,> 1000 nM
5,B5,> 1000 nM
6,B6,> 1000 nM
7,B7,51 nM
8,B8,> 1000 nM
9,B9,> 1000 nM
10,B10,> 1000 nM
11,B11,> 1000 nM
12,B12,> 1000 nM
13,B13,34 nM
14,B14,32 nM
15,B15,28 nM
16,B16,> 1000 nM
17,B17,> 1000 nM
18,B18,> 1000 nM
19,B19,56 nM
20,B20,> 1000 nM

row,Binder,VNA IC50
1,B21,> 1000 nM
2,B22,36 nM
3,B23,160 nM
4,B24,> 1000 nM
5,B25,174 nM
6,B26,> 1000 nM
7,B27,194 nM
8,B28,101 nM
9,B29,149 nM
10,B30,53 nM
11,B31,59 nM
12,B32,> 1000 nM
13,B33,32 nM
14,B34,12 nM
15,B35,5 nM
16,B36,40 nM
17,B37,101 nM
18,B38,5 nM
19,B39,12 nM
20,B40,101 nM
